Reference: the supplement of paper PMC10567573

B1: ZNF8 (parent)
chain: RTHTGEKPYTCSVCGKSFSRTTCL

Variants of: B1
Assay: protein stability index of a GFP-peptide fusion (GPS, HEK-293T) (PSI 1-6); higher = more stable
Conditions: c terminus: a fixed tail appended
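Also: lentivirally expressed fusions sorted by FACS into six bins by GFP to DsRed ratio, PSI derived from sequencing read proportions per bin multiplied by bin number.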

Row | Variant | protein stability index
1 | RTHTGEKPYTCSVCGKSFSRKTCL [T21K] | 2.4
2 | RTHTGEKPYTCSVCGKSFSRWTCL [T21W] | 1.72
3 | RTHTGEKPYTCSVCGKSFSRQTCL [T21Q] | 2.49
4 | RTHTGEKPYTCSVCGKSFSRFTCL [T21F] | 1.71
5 | RTHTGEKPYTCSVCGKSFSRLTCL [T21L] | 2.83
6 | RTHTGEKPYTCSVCGKSFSRYTCL [T21Y] | 2.32
7 | RTHTGEKPYTCSVCGKSFSRMTCL [T21M] | 2.39
8 | RTHTGEKPYTCSVCGKSFSRATCL [T21A] | 2.7
9 | RTHTGEKPYTCSVCGKSFSRETCL [T21E] | 2.67
10 | RTHTGEKPYTCSVCGKSFSRITCL [T21I] | 2.15
11 | RTHTGEKPYTCSVCGKSFSRVTCL [T21V] | 2.36
12 | RTHTGEKPYTCSVCGKSFSRDTCL [T21D] | 3.37
13 | RTHTGEKPYTCSVCGKSFSRCTCL [T21C] | 5.19
14 | RTHTGEKPYTCSVCGKSFSRSTCL [T21S] | 2.16
15 | RTHTGEKPYTCSVCGKSFSRHTCL [T21H] | 3.29
16 | RTHTGEKPYTCSVCGKSFSRNTCL [T21N] | 1.99
17 | RTHTGEKPYTCSVCGKSFSRRTCL [T21R] | 2.39
18 | RTHTGEKPYTCSVCGKSFSRPTCL [T21P] | 2.58
19 | RTHTGEKPYTCSVCGKSFSRGTCL [T21G] | 3.27
20 | RTHTGEKPYTCSVCGKSFSTTTCL [R20T] | 2.77
21 | RTHTGEKPYTCSVCGKSFSPTTCL [R20P] | 2.75
22 | RTHTGEKPYTCSVCGKSFSETTCL [R20E] | 3.14
23 | RTHTGEKPYTCSVCGKSFSHTTCL [R20H] | 3.75
24 | RTHTGEKPYTCSVCGKSFSDTTCL [R20D] | 3.46

Row | Variant | protein stability index
25 | RTHTGEKPYTCSVCGKSFSNTTCL [R20N] | 2.76
26 | RTHTGEKPYTCSVCGKSFSKTTCL [R20K] | 2.76
27 | RTHTGEKPYTCSVCGKSFSWTTCL [R20W] | 2.47
28 | RTHTGEKPYTCSVCGKSFSGTTCL [R20G] | 3.17
29 | RTHTGEKPYTCSVCGKSFSSTTCL [R20S] | 2.17
30 | RTHTGEKPYTCSVCGKSFSITTCL [R20I] | 1.75
31 | RTHTGEKPYTCSVCGKSFSATTCL [R20A] | 2.55
32 | RTHTGEKPYTCSVCGKSFSCTTCL [R20C] | 5.54
33 | RTHTGEKPYTCSVCGKSFSYTTCL [R20Y] | 2.91
34 | RTHTGEKPYTCSVCGKSFSMTTCL [R20M] | 2.18
35 | RTHTGEKPYTCSVCGKSFSLTTCL [R20L] | 2.01
36 | RTHTGEKPYTCSVCGKSFSVTTCL [R20V] | 2.02
37 | RTHTGEKPYTCSVCGKSFSQTTCL [R20Q] | 2.87
38 | RTHTGEKPYTCSVCGKSFSFTTCL [R20F] | 2.15
39 | RTHTGEKPYTCSVCGKSFSRTTTL [C23T] | 2.1
40 | RTHTGEKPYTCSVCGKSFSRTTHL [C23H] | 2.26
41 | RTHTGEKPYTCSVCGKSFSRTTAL [C23A] | 2.21
42 | RTHTGEKPYTCSVCGKSFSRTTRL [C23R] | 1.84
43 | RTHTGEKPYTCSVCGKSFSRTTGL [C23G] | 2.43
44 | RTHTGEKPYTCSVCGKSFSRTTPL [C23P] | 2.63
45 | RTHTGEKPYTCSVCGKSFSRTTFL [C23F] | 2.11
46 | RTHTGEKPYTCSVCGKSFSRTTSL [C23S] | 2.03
47 | RTHTGEKPYTCSVCGKSFSRTTML [C23M] | 2.19
48 | RTHTGEKPYTCSVCGKSFSRTTVL [C23V] | 1.59

Row | Variant | protein stability index
49 | RTHTGEKPYTCSVCGKSFSRTTWL [C23W] | 1.78
50 | RTHTGEKPYTCSVCGKSFSRTTQL [C23Q] | 2.24
51 | RTHTGEKPYTCSVCGKSFSRTTYL [C23Y] | 2.57
52 | RTHTGEKPYTCSVCGKSFSRTTLL [C23L] | 1.93
53 | RTHTGEKPYTCSVCGKSFSRTTDL [C23D] | 2.46
54 | RTHTGEKPYTCSVCGKSFSRTTKL [C23K] | 2.28
55 | RTHTGEKPYTCSVCGKSFSRTTEL [C23E] | 3
56 | RTHTGEKPYTCSVCGKSFPRTTCL [S19P] | 2.26
57 | RTHTGEKPYTCSVCGKSFQRTTCL [S19Q] | 2.65
58 | RTHTGEKPYTCSVCGKSFTRTTCL [S19T] | 2.41
59 | RTHTGEKPYTCSVCGKSFRRTTCL [S19R] | 3.8
60 | RTHTGEKPYTCSVCGKSFYRTTCL [S19Y] | 2.33
61 | RTHTGEKPYTCSVCGKSFWRTTCL [S19W] | 2.42
62 | RTHTGEKPYTCSVCGKSFVRTTCL [S19V] | 3.91
63 | RTHTGEKPYTCSVCGKSFSRTTCQ [L24Q] | 2.96
64 | RTHTGEKPYTCSVCGKSFSRTTCH [L24H] | 3.46
65 | RTHTGEKPYTCSVCGKSFSRTTCE [L24E] | 3.28
66 | RTHTGEKPYTCSVCGKSFSRTTCS [L24S] | 2.06
67 | RTHTGEKPYTCSVCGKSFSRTTCA [L24A] | 2.56
68 | RTHTGEKPYTCSVCGKSFSRTTCI [L24I] | 2.8
69 | RTHTGEKPYTCSVCGKSFSRTTCR [L24R] | 2.73
70 | RTHTGEKPYTCSVCGKSFSRTTCK [L24K] | 2.76
71 | RTHTGEKPYTCSVCGKSFSRTTCF [L24F] | 2.06
72 | RTHTGEKPYTCSVCGKSFSRTTCD [L24D] | 3.21

Row | Variant | protein stability index
73 | RTHTGEKPYTCSVCGKSFSRTTCN [L24N] | 3.03
74 | RTHTGEKPYTCSVCGKSFSRTTCP [L24P] | 3.17
75 | RTHTGEKPYTCSVCGKSFSRTTCM [L24M] | 2.87
76 | RTHTGEKPYTCSVCGKSFSRTTCC [L24C] | 4.72
77 | RTHTGEKPYTCSVCGKSFSRTKCL [T22K] | 2.97
78 | RTHTGEKPYTCSVCGKSFSRTSCL [T22S] | 1.82
79 | RTHTGEKPYTCSVCGKSFSRTFCL [T22F] | 2.3
80 | RTHTGEKPYTCSVCGKSFSRTYCL [T22Y] | 1.98
81 | RTHTGEKPYTCSVCGKSFSRTGCL [T22G] | 2.1
82 | RTHTGEKPYTCSVCGKSFSRTWCL [T22W] | 1.86
83 | RTHTGEKPYTCSVCGKSFSRTCCL [T22C] | 4.01
84 | RTHTGEKPYTCSVCGKSFSRTVCL [T22V] | 2.16
85 | RTHTGEKPYTCSVCGKSFSRTQCL [T22Q] | 2.5
86 | RTHTGEKPYTCSVCGKSFSRTACL [T22A] | 2.56
87 | RTHTGEKPYTCSVCGKSFSRTNCL [T22N] | 2.94
88 | RTHTGEKPYTCSVCGKSFSRTLCL [T22L] | 1.9
89 | RTHTGEKPYTCSVCGKSFSRTECL [T22E] | 4.28
90 | RTHTGEKPYTCSVCGKSFSRTPCL [T22P] | 2.43
91 | RTHTGEKPYTCSVCGKSFSRTRCL [T22R] | 1.8
92 | RTHTGEKPYTCSVCGKSFSRTMCL [T22M] | 1.63
93 | RTHTGEKPYTCSVCGKSFSRTHCL [T22H] | 2.24
94 | RTHTGEKPYTCSVCGKSFSRTDCL [T22D] | 2.27
